Source: patent publication US20040048289A1, “Magnetic particle membrane-specific protein” (priority 2000, published 2004)

Columns and labels:
[1] = GTPase activity (hydrolysis of 32P-labelled GTP, PEI cellulose TLC, bioimaging analyzer); assay type: biochemical; conditions: immunoprecipitate on anti-HA antibody sepharose, one hour at 30° C., FIG. 5
[2] = GTP binding ability (UV cross-linking with [γ-35S] GTP, SDS-PAGE, autoradiography); conditions: [γ-35S] GTP 1 μM, one hour at 30° C., protein expressed in E. coli DH5α
Protocol: As Mms 16 of the present invention contained many GTP binding proteins and homologous sequences, the GTP binding ability of Mms 16 was investigated as follows. 1 μl of [γ-^35S] GTP (1 μM; 1,250 Ci/mmol) and cell homogenate were mixed in 20 μl binding buffer (50 mM Tris-HCl, 5 mM MgCl2, 1 mM EDTA, 0.3% Tween 20), and kept still for one hour at 30° C. Then, the obtained reaction mixture was kept still on ice for 20 minutes, and ultraviolet bridging was performed between GTP and protein by using an ultraviolet lamp. Subsequently, ½ amount of 3× sample buffer was added to the reaction solution to denature the protein, and sepharose beads were precipitated by centrifugation, supernatant was loaded onto 15% (w/v) acrylamide gel. After SDS-PAGE, the gel was dried and wrapped in Saran Wrap, and detection was conducted by autoradiography.
As a result, in addition to the protein that binds to [γ-^35S] […] GTP. In case where [α-^32P] GTP is used, [α-^32P] GTP binding type of GTPase is not observed because GDP also dissociates from GTPase when phosphoric acid in position γ dissociates from GTP binding type GTPase by hydrolysis activity. However, in case where [γ-^35S] GTP is used, it is possible to show the presence of GTPase because S is binding to 5′ of phosphoric acid in position γ, and therefore, hydrolysis is not caused by GTPase.

Row | GTP binding ability [2] | Molecule | GTPase activity [1]
1 | – | Mms 16-HA fusion protein: Mms 16 fused at C-terminal with hemagglutinin epitope tag (YPYDVPDYA), expressed in E. coli from pTrc 16HA | [α-^32P] GTP was hydrolyzed
2 | apparently bind to [γ-^35S] GTP | Mms 16: 16 kDa protein specific to a magnetic particle membrane of Magnetospirillum sp. AMB-1, amino acid sequence Seq. ID No. 2 (protein, listed as Magnetospirillum sp., X: residue not identified in the source, 16 kDa protein specific to a magnetic particle membrane of Magnetospirillum sp; ID No. 2) MAAKQTEQFFDFDVAKYLGDFKVPGVDVETIVANQRKNIEALTQANKLAFEGLQNVVKRQVEILRQTMDEVAQVSKDFAEPGSPQGKAAKQAEFAKDAFERALXNARELAEMIAKANSEAFDLLNKXFTQSLDEAREVFTKAGKK | has GTPase activity
